Laboratory results reported in article PMC9248843, “Structural and biophysical studies of new L-asparaginase variants: lessons from random mutagenesis of the prototypic Escherichia coli Ntn-amidohydrolase” (Acta Crystallographica. Section D, Structural Biology, 2022).
Positions count from the first letter of the chain named.

T1: EcAIII α subunit (∼20 kDa) (Escherichia coli, UniProt P37595 1-178)
T1 construct: EcAIII of Escherichia coli, α subunit: cut product of the precursor up to the scissile bond Gly178-Thr179; the linker is partly degraded, residues 158-178 are not visible in the structures; also called subunit α; source: E. coli BL21 Gold, purified (DEAE-Sepharose, SEC); formed by autocleavage of the precursor
T1 sequence (looked up): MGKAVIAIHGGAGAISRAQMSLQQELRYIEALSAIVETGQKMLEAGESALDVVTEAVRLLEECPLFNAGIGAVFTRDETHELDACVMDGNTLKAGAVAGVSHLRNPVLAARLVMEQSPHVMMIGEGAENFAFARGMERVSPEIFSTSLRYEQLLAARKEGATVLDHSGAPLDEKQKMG

B1: EcAIII variant RDM1-43, unprocessed immature precursor (enzyme, Escherichia coli, UniProt P37595 1-321, looked up)
chain: MGKAVIAIHGGAGAISRAQMSLQQELRYIEALSAIVETGQKMLEAGESALDVVTEAVRLLEECPLFNAGIGAVFTRDETHELDACVMDGNTLKAGAVAGVSHLRNPVLAARLVMEQSPHVMMIGEGAENFAFARGMERVSPEIFSTSLRYEQLLAARKEGATVLDHSGAPLDEKQKMGTVGAVALDLDGNLAAATSTGGMTNKLPVGVGSSPLVGAGCYANNASVAVSCTGTGEVFIRALAAYDIAALMDYGGLSLAEACERVVMEKLPALGGSGGLIAIDHEGNVALPFNTEGMYRAWGYAGDTPTTGIYREKGDTVATQ
notes: EcAIII of Escherichia coli, uncleaved immature precursor (α and β on one chain, linker intact), with the substitutions of RDM1-43 (Ser211 kept); No ability to process into α/β subunits; EcAIII gene in pET-11d; source: E. coli BL21 Gold, purified (DEAE-Sepharose, SEC)
B2: EcAIII variant RDM1-46, unprocessed immature precursor (enzyme, Escherichia coli, UniProt P37595 1-321, looked up)
chain: B1 chain with V206L, G207D, S210L
notes: EcAIII of Escherichia coli, uncleaved immature precursor (α and β on one chain, linker intact), with the substitutions of RDM1-46 (Ser211 kept); No ability to process into α/β subunits; EcAIII gene in pET-11d; source: E. coli BL21 Gold, purified (DEAE-Sepharose, SEC)
B3: EcAIII variant RDM1-64, unprocessed immature precursor (enzyme, Escherichia coli, UniProt P37595 1-321, looked up)
chain: B1 chain with V206I, G207V, S210I, S211G
notes: EcAIII of Escherichia coli, uncleaved immature precursor (α and β on one chain, linker intact), with the substitutions of RDM1-64; No ability to process into α/β subunits; EcAIII gene in pET-11d; source: E. coli BL21 Gold, purified (DEAE-Sepharose, SEC)
B4: EcAIII β subunit (∼15 kDa), wild type (domain or fragment, Escherichia coli, UniProt P37595 179-321, looked up)
chain: TVGAVALDLDGNLAAATSTGGMTNKLPGRVGDSPLVGAGCYANNASVAVSCTGTGEVFIRALAAYDIAALMDYGGLSLAEACERVVMEKLPALGGSGGLIAIDHEGNVALPFNTEGMYRAWGYAGDTPTTGIYREKGDTVATQ
notes: EcAIII of Escherichia coli, β subunit: cut product of the precursor beginning at the nucleophilic Thr179; also called subunit β; source: E. coli BL21 Gold, purified (DEAE-Sepharose, SEC); formed by autocleavage of the precursor
B5: EcAIII β subunit of variant RDM1-3 (domain or fragment, Escherichia coli, UniProt P37595 179-321, looked up)
chain: B4 chain with G28H, R29T, D32P, S33Q
notes: EcAIII of Escherichia coli, β subunit beginning at Thr179, with the substitutions of RDM1-3; also called RDM1-3 β subunit; source: E. coli BL21 Gold, purified (DEAE-Sepharose, SEC); formed by autocleavage of the precursor
B6: EcAIII β subunit of variant RDM1-12 (domain or fragment, Escherichia coli, UniProt P37595 179-321, looked up)
chain: B4 chain with G28C, R29T, D32A, S33A
notes: EcAIII of Escherichia coli, β subunit beginning at Thr179, with the substitutions of RDM1-12; also called RDM1-12 β subunit; source: E. coli BL21 Gold, purified (DEAE-Sepharose, SEC); formed by autocleavage of the precursor
B7: EcAIII β subunit of variant RDM1-18 (domain or fragment, Escherichia coli, UniProt P37595 179-321, looked up)
chain: B4 chain with R29V, D32P, S33W
notes: also called RDM1-18 β subunit; source: E. coli BL21 Gold, purified (DEAE-Sepharose, SEC); formed by autocleavage of the precursor
B8: EcAIII β subunit of variant RDM1-24 (domain or fragment, Escherichia coli, UniProt P37595 179-321, looked up)
chain: B4 chain with R29A, D32S, S33T
notes: EcAIII of Escherichia coli, β subunit beginning at Thr179, with the substitutions of RDM1-24; also called RDM1-24 β subunit; source: E. coli BL21 Gold, purified (DEAE-Sepharose, SEC); formed by autocleavage of the precursor
B9: EcAIII β subunit of variant RDM1-29 (domain or fragment, Escherichia coli, UniProt P37595 179-321, looked up)
chain: B4 chain with G28C, R29S, D32L, S33V
notes: EcAIII of Escherichia coli, β subunit beginning at Thr179, with the substitutions of RDM1-29; also called RDM1-29 β subunit; source: E. coli BL21 Gold, purified (DEAE-Sepharose, SEC); formed by autocleavage of the precursor
B10: EcAIII β subunit of variant RDM1-37 (domain or fragment, Escherichia coli, UniProt P37595 179-321, looked up)
chain: B4 chain with G28S, R29T, D32S
notes: EcAIII of Escherichia coli, β subunit beginning at Thr179, with the substitutions of RDM1-37 (Ser211 kept); also called RDM1-37 β subunit; source: E. coli BL21 Gold, purified (DEAE-Sepharose, SEC); formed by autocleavage of the precursor
B11: EcAIII β subunit of variant RDM1-38 (domain or fragment, Escherichia coli, UniProt P37595 179-321, looked up)
chain: B4 chain with R29C, D32S, S33V
notes: EcAIII of Escherichia coli, β subunit beginning at Thr179, with the substitutions of RDM1-38; also called RDM1-38 β subunit; source: E. coli BL21 Gold, purified (DEAE-Sepharose, SEC); formed by autocleavage of the precursor
B12: wild-type EcAIII, mature (αβ)2 heterotetramer (class 2 L-asparaginase of Escherichia coli) (complex)
chain 1: T1 sequence (looked up)
chain 2: B4 chain
notes: EcAIII of Escherichia coli, α subunit: cut product of the precursor up to the scissile bond Gly178-Thr179; the linker is partly degraded, residues 158-178 are not visible in the structures; EcAIII of Escherichia coli, β subunit: cut product of the precursor beginning at the nucleophilic Thr179; Gene in pET-11d; no tag is mentioned; Dimer of two αβ heterodimers formed by autocleavage of the …
B13: EcAIII variant RDM1-3, mature (processed into α/β subunits) (complex, Escherichia coli)
chain 1: T1 sequence (looked up)
chain 2: B4 chain with G28H, R29T, D32P, S33Q
notes: EcAIII of Escherichia coli, α subunit: cut product up to the scissile bond Gly178-Thr179; residues 158-178 not visible in the structure; EcAIII of Escherichia coli, β subunit beginning at Thr179, with the substitutions of RDM1-3; source: E. coli BL21 Gold, purified (DEAE-Sepharose, SEC); copies: 2 + 2
B14: EcAIII variant RDM1-12, mature (processed into α/β subunits) (complex, Escherichia coli)
chain 1: T1 sequence (looked up)
chain 2: B4 chain with G28C, R29T, D32A, S33A
notes: EcAIII of Escherichia coli, α subunit: cut product up to the scissile bond Gly178-Thr179; residues 158-178 not visible in the structure; EcAIII of Escherichia coli, β subunit beginning at Thr179, with the substitutions of RDM1-12; source: E. coli BL21 Gold, purified (DEAE-Sepharose, SEC); copies: 2 + 2
B15: EcAIII variant RDM1-18, mature (processed into α/β subunits) (complex, Escherichia coli)
chain 1: T1 sequence (looked up)
chain 2: B4 chain with R29V, D32P, S33W
notes: EcAIII of Escherichia coli, α subunit: cut product up to the scissile bond Gly178-Thr179; residues 158-178 not visible in the structure; source: E. coli BL21 Gold, purified (DEAE-Sepharose, SEC); copies: 2 + 2
B16: EcAIII variant RDM1-24, mature (processed into α/β subunits) (complex, Escherichia coli)
chain 1: T1 sequence (looked up)
chain 2: B4 chain with R29A, D32S, S33T
notes: EcAIII of Escherichia coli, α subunit: cut product up to the scissile bond Gly178-Thr179; residues 158-178 not visible in the structure; EcAIII of Escherichia coli, β subunit beginning at Thr179, with the substitutions of RDM1-24; source: E. coli BL21 Gold, purified (DEAE-Sepharose, SEC); copies: 2 + 2
B17: EcAIII variant RDM1-29, mature (processed into α/β subunits) (complex, Escherichia coli)
chain 1: T1 sequence (looked up)
chain 2: B4 chain with G28C, R29S, D32L, S33V
notes: EcAIII of Escherichia coli, α subunit: cut product up to the scissile bond Gly178-Thr179; residues 158-178 not visible in the structure; EcAIII of Escherichia coli, β subunit beginning at Thr179, with the substitutions of RDM1-29; source: E. coli BL21 Gold, purified (DEAE-Sepharose, SEC); copies: 2 + 2
B18: EcAIII variant RDM1-37, mature (processed into α/β subunits) (complex, Escherichia coli)
chain 1: T1 sequence (looked up)
chain 2: B4 chain with G28S, R29T, D32S
notes: EcAIII of Escherichia coli, α subunit: cut product up to the scissile bond Gly178-Thr179; residues 158-178 not visible in the structure; EcAIII of Escherichia coli, β subunit beginning at Thr179, with the substitutions of RDM1-37 (Ser211 kept); source: E. coli BL21 Gold, purified (DEAE-Sepharose, SEC); copies: 2 + 2
B19: EcAIII variant RDM1-38, mature (processed into α/β subunits) (complex, Escherichia coli)
chain 1: T1 sequence (looked up)
chain 2: B4 chain with R29C, D32S, S33V
notes: EcAIII of Escherichia coli, α subunit: cut product up to the scissile bond Gly178-Thr179; residues 158-178 not visible in the structure; EcAIII of Escherichia coli, β subunit beginning at Thr179, with the substitutions of RDM1-38; source: E. coli BL21 Gold, purified (DEAE-Sepharose, SEC); copies: 2 + 2

Molecular target: the molecule itself
Experiment: SEC; SEC profiles of Supplementary Fig. S4; before biophysical measurements proteins were run on Superdex 75 10/300 GL in 20 mM phosphate buffer pH 7.5
Settings: not given

Row | Binder | binding result
1 | B1 | binds
2 | B2 | binds
3 | B3 | binds

These binders were tested against T1, EcAIII α subunit (∼20 kDa) (assay: crystal structure; hanging-drop vapor diffusion at 20°C; 20–30% PEG 4000 or PEG 6000, 0.2 M MgCl2, 100 mM Tris–HCl pH 8.5; protein 10–15 mg/ml; space group P212121). Settings: both partners purified.

Row | Binder | binding result
4 | B4 | binds
5 | B5 | binds
6 | B6 | binds
7 | B7 | binds
8 | B8 | binds
9 | B9 | binds
10 | B10 | binds
11 | B11 | binds

Molecular target: the molecule itself
Experiment: as above
Settings: not given

Row | Binder | binding result
12 | B12 | binds
13 | B13 | binds
14 | B14 | binds
15 | B15 | binds
16 | B16 | binds
17 | B17 | binds
18 | B18 | binds
19 | B19 | binds
